Experimental findings from US20110318347A1 (Ablynx, published 2011) are described below.

One test has as its target human CD4 on cells (human, UniProt P01730 26-458). Description: cell-based or functional assay.
For another test, the target named is CCR5 (UniProt P51681 1-352, limits assumed). Description: cell-based or functional assay.
Another test concerns the target T1, CXCR3 (UniProt P49682 1-368, limits assumed).
T1 construct: whole, on cells
T1 sequence (looked up): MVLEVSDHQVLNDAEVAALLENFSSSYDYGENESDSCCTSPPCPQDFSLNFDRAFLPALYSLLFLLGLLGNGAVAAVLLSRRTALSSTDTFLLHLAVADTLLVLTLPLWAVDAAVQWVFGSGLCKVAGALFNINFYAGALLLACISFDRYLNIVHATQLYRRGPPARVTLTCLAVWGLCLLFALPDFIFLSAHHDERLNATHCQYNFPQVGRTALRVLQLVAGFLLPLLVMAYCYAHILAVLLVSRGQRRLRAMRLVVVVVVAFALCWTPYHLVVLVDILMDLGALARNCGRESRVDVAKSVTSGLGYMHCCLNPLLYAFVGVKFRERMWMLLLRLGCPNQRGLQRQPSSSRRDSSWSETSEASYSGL
Nature of the test: total binding of [125I]-238D2 to membranes of HEK293T cells expressing CXCR4 or CXCR3.

Chain of CCR5 (P51681 whole entry): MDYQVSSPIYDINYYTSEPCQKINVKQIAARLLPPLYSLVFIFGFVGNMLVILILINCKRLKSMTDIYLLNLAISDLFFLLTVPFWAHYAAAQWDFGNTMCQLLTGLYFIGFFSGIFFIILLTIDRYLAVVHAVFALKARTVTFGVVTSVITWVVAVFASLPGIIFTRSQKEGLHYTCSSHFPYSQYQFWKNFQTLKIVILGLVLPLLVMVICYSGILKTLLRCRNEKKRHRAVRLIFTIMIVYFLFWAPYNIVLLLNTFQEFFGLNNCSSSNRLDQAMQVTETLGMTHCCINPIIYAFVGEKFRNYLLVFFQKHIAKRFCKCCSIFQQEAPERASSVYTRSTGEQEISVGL

B1: Nanobody 03F11 (VHH)
VHH: EVQLVESGGGSVQPGGSLTLSCGTSGRTFNVMGWFRQAPGKEREFVAAVRWSSTGIYYTQYADSVKSRFTISRDNAKNTVYLEMNSLKPEDTAVYYCAADTYNSNPARWDGYDFRGQGTQVTVSS
As for B1, in the test with human CD4 on cells, the “anti-HIV activity, NL4.3 on MT4 cells, MTS method, IC50” value was determined as 0.085 µM and the “anti-HIV activity, NL4.3 on MT4 cells, p24 levels, IC50” value was 0.015 µM.

B2: Nanobody 238D2 (VHH)
VHH: EVQLVESGGGLVQTGGSLRLSCAASGFTFSSYAMSWVRQAPGKGLEWVSGIKSSGDSTRYAGSVKGRFTISRDNAKNMLYLQMYSLKPEDTAVYYCAKSRVSRTGLYTYDNRGQGTQVTVSS
modifications: In some assays the Nanobody was 125I-labelled (Iodo-gen, on tyrosine); the letters do not carry this.
notes: Monovalent llama VHH against human CXCR4, purified; tags not described; also called 238C1
As for B2, in the test with CCR5, the “IC50, HIV-1 BaL, PBMC donor 1” value is above 1 mg/L; the “IC50, HIV-1 BaL, PBMC donor 2” value is above 1 mg/L; the “nM IC50, HIV-1 BAL, PBMC donor 1” value is above 67 nM; the “nM IC50, HIV-1 BAL, PBMC donor 2” value is above 67 nM. The binding result with CXCR3 is listed as “no binding (tested: 3 nM radioligand)”.
